# Results published in patent publication US20210063414A1, “METHODS FOR PREVENTING AND/OR TREATING BONE LOSS CONDITIONS BY MODULATING IRISIN” (Dana-Farber Cancer Institute, Inc., priority 2018, published 2021).
# How the values were obtained:
# Experiment in all cases: Crosslinking/co-immunoprecipitation/mass spectrometry (TMT quantitative proteomics) to identify irisin receptors
# Type in all cases: binding
# [1] = target: T1, MLO-Y4 cell surface proteins (Mus musculus, UniProt C0HKE1); conditions: co-precipitated protein Hist1h2ab (H2A1_MOUSE)
# T1 construct: endogenous in cells; host or cells: MLO-Y4
# How it was run: (§1)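 Mouse MLO-Y4 cells were switched to serum-free FreeStyle medium for 4 h, chilled, then exposed to 10 nM His-tagged irisin (or adipsin as control) for 20 min. Cells were crosslinked with 1.5 mM DTSSP (30 min, ice), and bound proteins were pulled down on Ni-NTA and eluted with 250 mM imidazole. Eluates were separated by SDS-PAGE, trypsin-digested in gel, TMT 6-plex labelled and quantified by MS3-based LC-MS/MS on an Orbitrap Fusion Lumos.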
# [2] = target: T2, MLO-Y4 cell surface proteins (Mus musculus, UniProt P62737); conditions: co-precipitated protein Acta2 (ACTA_MOUSE)
# T2 construct: endogenous in cells; host or cells: MLO-Y4
# How it was run: as §1
# [3] = target: T3, MLO-Y4 cell surface proteins (Mus musculus, UniProt Q3U1J4); conditions: co-precipitated protein Ddb1 (DDB1_MOUSE)
# T3 construct: endogenous in cells; host or cells: MLO-Y4
# How it was run: as §1
# [4] = target: T4, MLO-Y4 cell surface proteins (Mus musculus, UniProt P97350); conditions: co-precipitated protein Pkp1 (PKP1_MOUSE)
# T4 construct: endogenous in cells; host or cells: MLO-Y4
# T4 sequence (P97350 1-728): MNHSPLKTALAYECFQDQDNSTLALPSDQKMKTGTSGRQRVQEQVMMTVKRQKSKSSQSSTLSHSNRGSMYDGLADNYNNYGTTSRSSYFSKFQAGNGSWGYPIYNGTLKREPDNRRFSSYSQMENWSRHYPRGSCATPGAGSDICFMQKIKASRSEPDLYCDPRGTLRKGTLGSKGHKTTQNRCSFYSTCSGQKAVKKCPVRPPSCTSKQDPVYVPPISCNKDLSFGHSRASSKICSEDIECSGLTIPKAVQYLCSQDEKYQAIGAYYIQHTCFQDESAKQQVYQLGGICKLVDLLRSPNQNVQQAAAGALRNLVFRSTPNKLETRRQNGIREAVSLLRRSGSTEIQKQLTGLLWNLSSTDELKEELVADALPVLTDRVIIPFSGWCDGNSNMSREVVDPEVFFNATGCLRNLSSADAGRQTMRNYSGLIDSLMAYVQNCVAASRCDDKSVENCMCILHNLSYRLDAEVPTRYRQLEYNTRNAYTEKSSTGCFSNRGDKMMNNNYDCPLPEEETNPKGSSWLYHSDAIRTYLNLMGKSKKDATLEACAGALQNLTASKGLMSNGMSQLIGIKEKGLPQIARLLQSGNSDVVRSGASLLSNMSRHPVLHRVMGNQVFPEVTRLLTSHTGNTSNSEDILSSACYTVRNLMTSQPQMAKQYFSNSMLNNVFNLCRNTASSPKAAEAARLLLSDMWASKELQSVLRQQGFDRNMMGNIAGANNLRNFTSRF
# How it was run: as §1
# [5] = target: T5, MLO-Y4 cell surface proteins (Mus musculus, UniProt Q9D125); conditions: co-precipitated protein Mrps25 (RT25_MOUSE)
# T5 construct: endogenous in cells; host or cells: MLO-Y4
# How it was run: as §1
# [6] = target: T6, MLO-Y4 cell surface proteins (Mus musculus, UniProt Q8VHN7); conditions: co-precipitated protein Gpr98 (GPR98_MOUSE)
# T6 construct: endogenous in cells; host or cells: MLO-Y4
# How it was run: as §1
# [7] = target: T7, MLO-Y4 cell surface proteins (Mus musculus, UniProt Q66L42); conditions: co-precipitated protein Map3k10 (M3K10_MOUSE)
# T7 construct: endogenous in cells; host or cells: MLO-Y4
# How it was run: as §1
# T7 sequence (Q66L42 whole entry): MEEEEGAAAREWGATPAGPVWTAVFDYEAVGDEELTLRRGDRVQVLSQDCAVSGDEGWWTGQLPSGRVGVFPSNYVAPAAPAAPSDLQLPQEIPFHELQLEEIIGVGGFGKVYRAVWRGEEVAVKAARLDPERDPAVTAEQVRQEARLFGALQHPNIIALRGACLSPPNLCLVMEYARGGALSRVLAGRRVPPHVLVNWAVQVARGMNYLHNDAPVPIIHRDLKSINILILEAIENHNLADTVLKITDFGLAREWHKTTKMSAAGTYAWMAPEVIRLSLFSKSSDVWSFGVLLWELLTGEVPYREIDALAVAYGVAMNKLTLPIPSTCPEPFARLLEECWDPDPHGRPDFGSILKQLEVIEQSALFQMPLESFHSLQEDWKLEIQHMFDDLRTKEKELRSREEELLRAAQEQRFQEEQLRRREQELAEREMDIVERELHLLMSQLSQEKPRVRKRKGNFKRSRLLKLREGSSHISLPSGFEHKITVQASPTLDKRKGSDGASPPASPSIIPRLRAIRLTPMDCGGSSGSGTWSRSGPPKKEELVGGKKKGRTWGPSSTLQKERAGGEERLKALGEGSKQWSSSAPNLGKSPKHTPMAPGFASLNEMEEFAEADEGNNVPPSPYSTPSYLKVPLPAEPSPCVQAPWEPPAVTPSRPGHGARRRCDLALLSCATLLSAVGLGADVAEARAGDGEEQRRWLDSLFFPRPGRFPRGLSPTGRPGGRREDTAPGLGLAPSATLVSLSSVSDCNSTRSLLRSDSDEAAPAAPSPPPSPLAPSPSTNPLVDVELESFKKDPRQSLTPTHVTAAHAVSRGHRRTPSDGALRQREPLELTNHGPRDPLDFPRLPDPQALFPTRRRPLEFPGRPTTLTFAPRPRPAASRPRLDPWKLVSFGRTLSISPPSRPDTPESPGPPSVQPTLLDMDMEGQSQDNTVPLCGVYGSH
# T3 sequence (Q3U1J4 whole entry): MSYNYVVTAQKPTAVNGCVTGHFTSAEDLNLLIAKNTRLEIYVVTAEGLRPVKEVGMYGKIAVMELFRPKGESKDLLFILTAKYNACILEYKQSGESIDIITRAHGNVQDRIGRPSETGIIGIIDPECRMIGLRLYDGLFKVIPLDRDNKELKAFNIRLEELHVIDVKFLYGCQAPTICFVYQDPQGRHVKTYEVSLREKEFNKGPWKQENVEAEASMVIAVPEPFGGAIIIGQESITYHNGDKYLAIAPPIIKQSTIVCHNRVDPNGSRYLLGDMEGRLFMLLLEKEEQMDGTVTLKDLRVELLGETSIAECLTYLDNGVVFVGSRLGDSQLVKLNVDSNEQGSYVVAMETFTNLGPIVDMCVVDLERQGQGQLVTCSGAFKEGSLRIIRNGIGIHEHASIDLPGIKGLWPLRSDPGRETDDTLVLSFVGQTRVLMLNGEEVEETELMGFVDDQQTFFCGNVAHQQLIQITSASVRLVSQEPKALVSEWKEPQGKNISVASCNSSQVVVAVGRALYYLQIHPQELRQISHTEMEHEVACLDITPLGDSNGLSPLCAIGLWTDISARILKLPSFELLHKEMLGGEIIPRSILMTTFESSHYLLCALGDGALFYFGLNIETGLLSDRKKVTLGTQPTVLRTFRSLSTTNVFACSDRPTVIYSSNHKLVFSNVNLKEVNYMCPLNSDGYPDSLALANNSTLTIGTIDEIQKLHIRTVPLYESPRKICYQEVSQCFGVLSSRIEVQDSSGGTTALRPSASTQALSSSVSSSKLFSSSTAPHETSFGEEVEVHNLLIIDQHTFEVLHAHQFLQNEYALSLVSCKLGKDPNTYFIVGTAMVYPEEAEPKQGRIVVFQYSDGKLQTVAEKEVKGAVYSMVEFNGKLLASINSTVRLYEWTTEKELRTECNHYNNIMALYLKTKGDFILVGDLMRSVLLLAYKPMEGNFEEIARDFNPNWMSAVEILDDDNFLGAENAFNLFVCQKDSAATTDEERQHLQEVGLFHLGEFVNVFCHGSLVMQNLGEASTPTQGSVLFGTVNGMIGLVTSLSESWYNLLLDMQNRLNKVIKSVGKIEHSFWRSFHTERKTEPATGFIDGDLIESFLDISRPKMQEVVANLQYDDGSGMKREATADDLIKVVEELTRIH
substance,measurement,setting,value
adipsin,TMT signal-to-noise ratio,[1],273.934
same,TMT signal-to-noise ratio,[2],361.157
same,TMT signal-to-noise ratio,[3],426.44
same,TMT signal-to-noise ratio,[4],98.2846
same,TMT signal-to-noise ratio,[5],84.7592
same,TMT signal-to-noise ratio,[6],618.49
same,TMT signal-to-noise ratio,[7],109.366
